According to publication PMC3758481:

Key:
[1] = biological target: spin labeled L705C mutant of C99 (human) (UniProt P05067); assay: continuous wave EPR of spin labeled protein
[2] = biological target: spin labeled S697C mutant of C99 (human) (UniProt P05067); assay: continuous wave EPR of spin labeled protein

Substance | KD, average of four fits (sites S697C and L705C, two fields each) [1] [mol%] | KD, average of four fits (sites S697C and L705C, two fields each) [2] [mol%]
spin labeled L705C mutant of C99 (from UniProt P05067 672-770) (domain or fragment) | 0.44 | 
spin labeled S697C mutant of C99 (from UniProt P05067 672-770) (domain or fragment) |  | 0.44
